Test results from paper PMC3814767, “Target Specificity of the E3 Ligase LUBAC for Ubiquitin and NEMO Relies on Different Minimal Requirements* ^([image sbox.jpg])” (The Journal of Biological Chemistry, 2013).

Biological target: T1, N-terminal TAMRA-labeled ubiquitin (wild type) (UniProt P0CG48 1-76, TAMRA (5-carboxytetramethylrhodamine) label on the N-terminus)
T1 construct: also called ^TAMRAubiquitin; ^TAMRAUb; source: chemically synthesized (according to El Oualid et al.), purified over Resource S and gel filtration (Superdex 75)
Test: fluorescence polarisation; TAMRA-ubiquitin 1 nM, HOIP^LDD in 1:1 serial dilutions, three repeats; 20 mM Hepes pH 7.5, 150 mM NaCl, 5 mM βME, 1 g/liter chicken ovalbumin; fit to a 1:1 non-linear binding model
Conditions: both partners purified

Kd: 160 ± 40 µM
B1: HOIP linear ubiquitin chain determining domain (LDD) (domain or fragment, UniProt Q96EP0 910-1072, looked up)
chain: KCPEPNCRVKKSLHGHHPRDCLFYLRDWTALRLQKLLQDNNVMFNTEPPAGARAVPGGGCRVIEQKEVPNGLRDEACGKETPAGYAGLCQAHYKEYLVSLINAHSLDPATLYEVEELETATERYLHVRPQPLAGEDPPAYQARLLQKLTEEVPLGQSIPRRRK
notes: HOIP (RNF31), the C-terminal linear ubiquitin chain determining domain (LDD); also called HOIP^LDD; HOIP LDD domain
